In the supplement of paper PMC10567573:

B1: TRIM39 (parent)
chain: YPCVLATEGFTSGRHYWEVEVGDK

Variants of: B1
Assay: protein stability index of a GFP-peptide fusion (GPS, HEK-293T) (PSI 1-6); higher = more stable
Conditions: c terminus: a fixed tail appended
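Note: lentivirally expressed fusions sorted by FACS into six bins by GFP to DsRed ratio, PSI derived from sequencing read proportions per bin multiplied by bin number.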

Variant | protein stability index
YPCVLATEGFTSGRHYWEVEAGDK [V21A] | 2.51
YPCVLATEGFTSGRHYWEVEDGDK [V21D] | 2.2
YPCVLATEGFTSGRHYWEVEFGDK [V21F] | 1.95
YPCVLATEGFTSGRHYWEVEEGDK [V21E] | 1.77
YPCVLATEGFTSGRHAWEVEVGDK [Y16A] | 2.38
YPCVLATEGFTSGRHVWEVEVGDK [Y16V] | 2.08
YPCVLATEGFTSGRHDWEVEVGDK [Y16D] | 3.52
YPCVLATEGFTSGRHLWEVEVGDK [Y16L] | 1.76
YPCVLATEGFTSGRHMWEVEVGDK [Y16M] | 2.45
YPCVLATEGFTSGRHEWEVEVGDK [Y16E] | 2.6
YPCVLATEGFTSGRHCWEVEVGDK [Y16C] | 1.5
YPCVLATEGFTSGRHRWEVEVGDK [Y16R] | 2.02
YPCVLATEGFTSGRHSWEVEVGDK [Y16S] | 1.75
YPCVLATEGFTSGRHHWEVEVGDK [Y16H] | 2.04
YPCVLATEGFTSGRHIWEVEVGDK [Y16I] | 2.33
YPCVLATEGFTSGRHTWEVEVGDK [Y16T] | 1.35
YPCVLATEGFTSGRHWWEVEVGDK [Y16W] | 4.12
YPCVLATEGFTSGRHPWEVEVGDK [Y16P] | 1.78
YPCVLATEGFTSGRHFWEVEVGDK [Y16F] | 1.2
YPCVLATEGFTSGRHKWEVEVGDK [Y16K] | 2.38
YPCVLATEGFTSGRHGWEVEVGDK [Y16G] | 2.98
YPCVLATEGFTSGRHQWEVEVGDK [Y16Q] | 2.16
YPCVLATEGFTSGRHNWEVEVGDK [Y16N] | 2.56
YPCVLATEGFTAGRHYWEVEVGDK [S12A] | 2.15

Variant | protein stability index
YPCVLATEGFTIGRHYWEVEVGDK [S12I] | 2.33
YPCVLATEGFTWGRHYWEVEVGDK [S12W] | 1.98
YPCVLATEGFTDGRHYWEVEVGDK [S12D] | 2.79
YPCVLATEGFTCGRHYWEVEVGDK [S12C] | 1.96
YPCVLATEGFTYGRHYWEVEVGDK [S12Y] | 1.68
YPCVLATEGFTLGRHYWEVEVGDK [S12L] | 1.97
YPCVLATEGFTGGRHYWEVEVGDK [S12G] | 1.6
YPCVLATEGFTHGRHYWEVEVGDK [S12H] | 1.67
YPCVLATEGFTVGRHYWEVEVGDK [S12V] | 1.6
YPCVLATEGFTMGRHYWEVEVGDK [S12M] | 3.54
YPCVLATEGFTKGRHYWEVEVGDK [S12K] | 1.95
YPCVLATEGFTRGRHYWEVEVGDK [S12R] | 2.79
YPCVLATEGFTPGRHYWEVEVGDK [S12P] | 1.81
YPCVLATEGFTNGRHYWEVEVGDK [S12N] | 1.95
YPCVLATEGFTTGRHYWEVEVGDK [S12T] | 1.76
YPCVLATEGFTFGRHYWEVEVGDK [S12F] | 1.34
YPCVLATEGFTQGRHYWEVEVGDK [S12Q] | 1.66
YPCVLATEGFTSGRHYWEEEVGDK [V19E] | 2.59
YPCVLATEGFTSGRHYWEWEVGDK [V19W] | 2.21
YPCVLATEGFTSGRHYWEGEVGDK [V19G] | 2.6
YPCVLATEGFTSGRHYWEFEVGDK [V19F] | 2.21
YPCVLATEGFTSGRHYWEKEVGDK [V19K] | 2.98
YPCVLATEGFTSGRHYWEMEVGDK [V19M] | 2.63
YPCVLATEGFTSGRHYWEHEVGDK [V19H] | 2.85

Variant | protein stability index
YPCVLATEGFTSGRHYWEIEVGDK [V19I] | 2.19
YPCVLATEGFTSGRHYWEPEVGDK [V19P] | 2.13
YPCVLATEGFTSGRHYWECEVGDK [V19C] | 2.18
YPCVLATEGFTSGRHYWEDEVGDK [V19D] | 3.18
YPCVLATEGFTSGRHYWESEVGDK [V19S] | 1.93
YPCVLATEGFTSGRHYWEQEVGDK [V19Q] | 2.86
YPCVLATEGFTSGRHYWEAEVGDK [V19A] | 1.96
YPCVLATEGFTSGRHYWENEVGDK [V19N] | 2.54
YPCVLATEGFTSGRHYWEYEVGDK [V19Y] | 2.64
YPCVLATEGFTSGRHYWELEVGDK [V19L] | 2.35
YPCVLATEGFTSGRHYWETEVGDK [V19T] | 1.41
YPCVLATEGFTSGRHYWEREVGDK [V19R] | 2.4
YPCVLATEGFYSGRHYWEVEVGDK [T11Y] | 3.04
YPCVLATEGFHSGRHYWEVEVGDK [T11H] | 1.71
YPCVLATEGFKSGRHYWEVEVGDK [T11K] | 2.19
YPCVLATEGFVSGRHYWEVEVGDK [T11V] | 1.44
YPCVLATEGFWSGRHYWEVEVGDK [T11W] | 2.66
YPCVLATEGFMSGRHYWEVEVGDK [T11M] | 1.73
YPCVLATEGFPSGRHYWEVEVGDK [T11P] | 2.19
YPCVLATEGFESGRHYWEVEVGDK [T11E] | 2.39
YPCVLATEGFRSGRHYWEVEVGDK [T11R] | 2.82
YPCVLATEGFSSGRHYWEVEVGDK [T11S] | 1.58
YPCVLATEGFCSGRHYWEVEVGDK [T11C] | 1.73
YPCVLATEGFNSGRHYWEVEVGDK [T11N] | 2.67

Variant | protein stability index
YPCVLATEGFGSGRHYWEVEVGDK [T11G] | 2.09
YPCVLATEGFQSGRHYWEVEVGDK [T11Q] | 1.72
YPCVLATEGFASGRHYWEVEVGDK [T11A] | 1.97
YPCVLATEGFDSGRHYWEVEVGDK [T11D] | 2.17
YPCVLATEGFISGRHYWEVEVGDK [T11I] | 2.59
YPCVLATEGFLSGRHYWEVEVGDK [T11L] | 1.89
YPCVLATEGFFSGRHYWEVEVGDK [T11F] | 2.55
YPCVLATEGFTSGRHYTEVEVGDK [W17T] | 3.6
YPCVLATEGFTSGRHYIEVEVGDK [W17I] | 2.95
YPCVLATEGFTSGRHYGEVEVGDK [W17G] | 3.44
YPCVLATEGFTSGRHYDEVEVGDK [W17D] | 3.88
YPCVLATEGFTSGRHYQEVEVGDK [W17Q] | 3.68
YPCVLATEGFTSGRHYEEVEVGDK [W17E] | 3.84
YPCVLATEGFTSGRHYMEVEVGDK [W17M] | 3.21
YPCVLATEGFTSGRHYPEVEVGDK [W17P] | 3.54
YPCVLATEGFTSGRHYSEVEVGDK [W17S] | 3.62
YPCVLATEGFTSGRHYKEVEVGDK [W17K] | 2.76
YPCVLATEGFTSGRHYFEVEVGDK [W17F] | 2.41
YPCVLATEGFTSGRHYCEVEVGDK [W17C] | 3.22
YPCVLATEGFTSGRHYAEVEVGDK [W17A] | 3.49
YPCVLATEGFTSGRHYVEVEVGDK [W17V] | 2.44
YPCVLATEGFTSGRHYYEVEVGDK [W17Y] | 2.24
